T1: GPR41 (Homo sapiens, UniProt O14843)
T1 sequence (O14843 1-346): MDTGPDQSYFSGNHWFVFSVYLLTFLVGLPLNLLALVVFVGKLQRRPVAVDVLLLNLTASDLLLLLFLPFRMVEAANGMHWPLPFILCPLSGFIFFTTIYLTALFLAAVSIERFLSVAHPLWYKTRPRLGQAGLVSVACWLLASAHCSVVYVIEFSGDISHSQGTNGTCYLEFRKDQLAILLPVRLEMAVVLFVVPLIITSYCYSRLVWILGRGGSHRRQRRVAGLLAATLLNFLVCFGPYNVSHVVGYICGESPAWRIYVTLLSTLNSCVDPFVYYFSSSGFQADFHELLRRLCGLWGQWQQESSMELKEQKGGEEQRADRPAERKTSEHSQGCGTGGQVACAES


How the values were obtained:
Format in all cases: cell-based
dopamine D2 receptor = biological target: T2, dopamine D2 receptor (Homo sapiens, UniProt P14416); assay: Forskolin, dopamine and haloperidol responses of biosensor clones in HEK293 cells stably expressing the dopamine D2 receptor; conditions: for Dopamine Induced: 3 μM FSK + 0.3 μM dopamine; for Dopamine Induced / Forskolin (FSK) Induced / Forskolin (FSK) Uninduced: 10 minutes; for Forskolin (FSK) Induced: 3 μM FSK; for Halo Induced: 10 μM Haloperidol pre-treatment, then 3 μM FSK + 0.3 μM dopamine; for Dopamine Response: RLU agonist-treated / forskolin-treated; for Forskolin (FSK) Response: RLU forskolin-treated / untreated; for Halo Response: RLU haloperidol then FSK + dopamine / FSK + dopamine alone; for Forskolin (FSK) Uninduced: untreated (media alone)
T2 construct: expressed in transfected cells
Source text: To measure changes in the intracellular concentration of cAMP, HEK293 cells are transiently transfected with mutant cAMP biosensors followed by treatment with compounds known to increase or decrease the intracellular cAMP concentration through GPCR activation of Gs- or Gi-coupled receptors, respectively.
HEK293 cells stably expressing the dopamine D2 receptor were transiently transfected with the mutant cAMP biosensors from Example VIIB. Cells were also transfected with either 7A1 (Example III) or GS358 (parent biosensor) as controls. Cells were equilibrated for 2 hours at room temperature using 2 mM EF-luc. Antagonist assay wells were pre-treated for 10-15 minutes at room temperature with 10 μM Haloperidol (Halo). Next, the following reagents were added to their respective wells: media alone to “untreated” samples; 3 μM forskolin (FSK) to “forskolin-treated” samples; 3 μM FSK+0.3 μM dopamine to “agonist-treated” samples; and 3 μM FSK+0.3 μM dopamine to the aforementioned wells pre-treated with Halo. The cells were then incubated at room temperature for 10 minutes and luminescence was measured. Fold response for FSK was calculated by dividing the RLU from “forskolin-treated” cells by the RLU from the “untreated” cells. Fold response for dopamine treatment was calculated by dividing the RLU from the “agonist-treated” cells by the RLU from the “forskolin-treated” cells. Fold response for Haloperidol treatment was calculated by dividing the RLU from the cells treated with haloperidol then forskolin plus dopamine by the RLU of cells treated with forskolin plus dopamine alone.

HEK293 cells [1] = assay: Screening of linker variant cAMP biosensors in HEK293 cells with isoproterenol
Source text: The linker variants of Example III were inserted into a CP-FF construct as in Example II. The construct further comprised a mutant RIIβb cAMP binding site containing the substitutions at […] and […]. As in Example II, the constructs were first screened in E. coli to identify linker sequences which provided improved luminescence, improved response or both. The linker variants were then screened for improved luminescence signal, response to isoproterenol, or both in HEK293 cells. On day 1, 15,000 HEK293 cells were plated to the individual wells of a 96-well plate. On day 2, cells were transiently transfected with plasmid DNAs encoding a cAMP biosensor variant comprising a variant linker sequence using the LT1 reagent from Mirus Bio. […] Isoproterenol was added to 10 μM final concentration to the individual wells, and luminescence was monitored continuously in time (Mithras luminometer; 1 second integration time). Once measurements were complete (>30 minutes), cells were lysed, and Renilla luciferase activity was measured. Biosensor luminescence (FF RLU) was normalized using the Renilla luminescence signal (RL norm), and fold-induction (response) was calculated by dividing the normalized biosensor luminescence from isoproterenol-treated wells by the normalized luminescence from control wells that received no compound addition (Figure). […]

HEK293 cells [2] = assay: Luminescence and fold response of biosensor clones in HEK293 cells after isoproterenol or FSK; conditions: for Isoproterenol-5 minutes Induced / Isoproterenol-5 minutes Resp: 5 minutes after isoproterenol; for Forskolin (FSK) Induced / Forskolin (FSK) Resp: 15 minutes after FSK; for Isoproterenol-15 minutes Induced / Isoproterenol-15 minutes Resp: 15 minutes after isoproterenol; for Isoproterenol-5 minutes Resp / Forskolin (FSK) Resp / Isoproterenol-15 minutes Resp: RLU induced / RLU uninduced; for Isoproterenol-5 minutes Uninduced / Forskolin (FSK) Uninduced / Isoproterenol-15 minutes Uninduced: uninduced cells; for Forskolin (FSK) Uninduced / Isoproterenol-15 minutes Uninduced: 15 minutes
Description: B. HEK293 cells were transiently transfected with plasmid DNAs encoding various biosensor mutants as above. These biosensor mutants contained the E284A and V316I mutation in the RIIbetaB cAMP binding domain and the modified linker sequence 7A1 (GSNWDSGCSREG; SEQ ID NO: 129). The clones also contained the additional mutations outlined in Table 5. Cells were equilibrated for 2 hours at room temperature with 2 mM EF-Luc. Luminescence was measured 5 and 15 minutes after addition of the isoproterenol and 15 minutes after addition of FSK. Fold response (response; Resp.) was calculated by dividing relative light units (RLUs) from induced cells by the RLUs from uninduced cells. As a control, the biosensor GS358 and 7A1 were included.

GPR41 [3] = assay: Sodium proprionate CRC with biosensor variants in HEK293 cells stably expressing GPR41; conditions: ratio of RLU of FSK treated well to untreated well
How it was run: (§1)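 GPR41-stable HEK293 cells were transiently transfected with a cAMP biosensor variant, then after 24 h equilibrated 2 h at room temperature with 5 mM EF-luc in CO2-independent medium with 10% FBS. Baseline luminescence was read, a sodium propionate concentration series added, and luminescence read after 30 min. EC50 and fold response were derived, with or without FSK.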

GPR41 [4] = biological target: T1, GPR41; assay: as above; conditions: for Fold Response Na proprionate + FSK(1 μM): with FSK 1 μM; for Fold Response Na proprionate: without FSK, ratio of induced to uninduced signal
How it was run: as §1

T2 sequence (P14416 whole entry, species assumed): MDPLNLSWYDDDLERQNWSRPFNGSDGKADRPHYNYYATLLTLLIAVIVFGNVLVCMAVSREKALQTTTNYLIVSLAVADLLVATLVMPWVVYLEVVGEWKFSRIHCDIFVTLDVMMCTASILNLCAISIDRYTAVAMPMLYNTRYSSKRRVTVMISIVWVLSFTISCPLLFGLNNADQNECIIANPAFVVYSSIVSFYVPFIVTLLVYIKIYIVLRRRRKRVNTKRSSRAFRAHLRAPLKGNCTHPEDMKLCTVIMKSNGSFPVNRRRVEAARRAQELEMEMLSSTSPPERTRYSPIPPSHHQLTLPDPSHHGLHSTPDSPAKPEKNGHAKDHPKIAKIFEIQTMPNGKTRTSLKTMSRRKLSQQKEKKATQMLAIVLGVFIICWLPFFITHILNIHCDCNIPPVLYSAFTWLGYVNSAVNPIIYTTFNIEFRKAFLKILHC

Row | Molecule | Dopamine Induced (dopamine D2 receptor) [RLU] | Forskolin (FSK) Induced (dopamine D2 receptor) [RLU] | Halo Induced (dopamine D2 receptor) [RLU] | Dopamine Response (dopamine D2 receptor) [fold] | Forskolin (FSK) Response (dopamine D2 receptor) [fold] | Halo Response (dopamine D2 receptor) [fold] | Forskolin (FSK) Uninduced (dopamine D2 receptor) [RLU] | Isoproterenol-5 minutes Induced (HEK293 cells [2]) [RLU] | Forskolin (FSK) Induced (HEK293 cells [2]) [RLU] | Isoproterenol-15 minutes Induced (HEK293 cells [2]) [RLU] | Isoproterenol-5 minutes Resp (HEK293 cells [2]) [fold] | Forskolin (FSK) Resp (HEK293 cells [2]) [fold] | Isoproterenol-15 minutes Resp (HEK293 cells [2]) [fold] | Isoproterenol-5 minutes Uninduced (HEK293 cells [2]) [RLU] | Forskolin (FSK) Uninduced (HEK293 cells [2]) [RLU] | Isoproterenol-15 minutes Uninduced (HEK293 cells [2]) [RLU] | Fold Signal Change (GPR41 [3]) | Fold Response Na proprionate + FSK(1 μM) (GPR41 [4]) | Fold Response Na proprionate (GPR41 [4]) | other results
1 | 7A1: cAMP biosensor, RIIβB E284A and V316I, linker …; SEQ ID NO:113, 114 (protein, cAMP biosensor, RIIβB E284A and V316I, linker …) MPGAVGKVVPFFEAKVVDLDTGKTLGVNQRGELCVRGPMIMSGYVNNPEATNALIDKDGWLHSGDIAYWDEDEHFFIVDRLKSLIKYKGYQVAPAELESILLQHPNIFDAGVAGLPDDDAGELPAAVVVLEHGKTMTEKEIVDYVASQVTTAKKLRGGVVFVDEVPKGLTGKLDARKIREILIKAKKGSSGGSGGSGGGMYESFIESLPFLKSLEFSERLKVVDVIGTKVYNDGEQIIAQGDSADSFFIVESGEVKITMKRKGKSEVEENGAVEIARCSRGQYFGELALVTNKPRAASAHAIGTVKCLAMDVQAFERLLGPCMEIMKRNIATYEEQLVALFGTNMDIVAKNIKKGPAPFYPLEDGTAGEQLHKAMKRYALVPGTIAFTDAHIEVDITYAEYFEMSVRLAEAMKRYGLNTNHRIVVCSENSLQFFMPVLGALFIGVAVAPANDIYNERELLNSMGISQPTVVFVSKKGLQKILNVQKKLPIIQKIIIMDSKTDYQGFQSMYTFVTSHLPPGFNEYDFVPESFDRDKTIALIMNSSGSTGLPKGVALPHRTACVRFSHARDPIFGNQIIPDTAILSVVPFHHGFGMFTTLGYLICGFRVVLMYRFEEELFLRSLQDYKIQSALLVPTLFSFFAKSTLIDKYDLSNLHEIASGGAPLSKEVGEAVAKRFHLPGIRQGYGLTETTSAILITPEGV | 1860 | 4709 | 5429 | 0.38 | 15 | 2.9 | 307 | 73287 | 161755 | 173340 | 60 | 47 | 51 | 1231 | 3415 | 3415 | – | – | – | Signal Improvement (HEK293 cells [1]; fold improvement in luminescent signal over parental GS358 with E284A and V316I, HEK293, 10 μM isoproterenol): 2.4 fold; Response Improvement (HEK293 cells [1]; fold improvement in response to isoproterenol over parental GS358 with E284A and V316I, HEK293, 10 μM): 1.4 fold
2 | GS358: parent cAMP biosensor Met-(FF luc 359-544)-GSSGGSGGSGGG-(RIIβB)-(FFluc4-355)-Val; SEQ ID NO:111, 112 (protein) MPGAVGKVVPFFEAKVVDLDTGKTLGVNQRGELCVRGPMIMSGYVNNPEATNALIDKDGWLHSGDIAYWDEDEHFFIVDRLKSLIKYKGYQVAPAELESILLQHPNIFDAGVAGLPDDDAGELPAAVVVLEHGKTMTEKEIVDYVASQVTTAKKLRGGVVFVDEVPKGLTGKLDARKIREILIKAKKGSSGGSGGSGGGMYESFIESLPFLKSLEFSERLKVVDVIGTKVYNDGEQIIAQGDSADSFFIVESGEVKITMKRKGKSEVEENGAVEIARCSRGQYFGELALVTNKPRAASAHAIGTVKCLAMDVQAFERLLGPCMEIMKRNIATYEEQLVALFGTNMDIVAKNIKKGPAPFYPLEDGTAGEQLHKAMKRYALVPGTIAFTDAHIEVDITYAEYFEMSVRLAEAMKRYGLNTNHRIVVCSENSLQFFMPVLGALFIGVAVAPANDIYNERELLNSMGISQPTVVFVSKKGLQKILNVQKKLPIIQKIIIMDSKTDYQGFQSMYTFVTSHLPPGFNEYDFVPESFDRDKTIALIMNSSGSTGLPKGVALPHRTACVRFSHARDPIFGNQIIPDTAILSVVPFHHGFGMFTTLGYLICGFRVVLMYRFEEELFLRSLQDYKIQSALLVPTLFSFFAKSTLIDKYDLSNLHEIASGGAPLSKEVGEAVAKRFHLPGIRQGYGLTETTSAILITPEGV | 5153 | 9166 | 9218 | 0.56 | 5 | 1.9 | 1704 | 41610 | 195335 | 184150 | 8 | 13 | 12 | 4943 | 14895 | 14895 | 9.48 (n = 8) fold | 3.19 (n = 7) fold | 2.56 (n = 8) fold | –
3 | 4H7: 7A1 biosensor with F407Y in RIIβb; SEQ ID NO:35, 36 (protein) MPGAVGKVVPFFEAKVVDLDTGKTLGVNQRGELCVRGPMIMSGYVNNPEATNALIDKDGWLHSGDIAYWDEDEHFFIVDRLKSLIKYKGYQVAPAELESILLQHPNIFDAGVAGLPDDDAGELPAAVVVLEHGKTMTEKEIVDYVASQVTTAKKLRGGVVFVDEVPKGLTGKLDARKIREILIKAKKGSNWDSGCSREGMYESFIESLPFLKSLEFSARLKVVDVIGTKVYNDGEQIIAQGDSADSFFIIESGEVKITMKRKGKSEVEENGAVEIARCSRGQYFGELALVTNKPRAASAHAIGTVKCLAMDVQAFERLLGPCMEIMKRNIATYEEQLVALYGTNMDIVAKNIKKGPAPFYPLEDGTAGEQLHKAMKRYALVPGTIAFTDAHIEVDITYAEYFEMSVRLAEAMKRYGLNTNHRIVVCSENSLQFFMPVLGALFIGVAVAPANDIYNERELLNSMGISQPTVVFVSKKGLQKILNVQKKLPIIQKIIIMDSKTDYQGFQSMYTFVTSHLPPGFNEYDFVPESFDRDKTIALIMNSSGSTGLPKGVALPHRTACVRFSHARDPIFGNQIIPDTAILSVVPFHHGFGMFTTLGYLICGFRVVLMYRFEEELFLRSLQDYKIQSALLVPTLFSFFAKSTLIDKYDLSNLHEIASGGAPLSKEVGEAVAKRFHLPGIRQGYGLTETTSAILITPEGV | 583 | 3180 | 2778 | 0.18 | 14 | 4.8 | 230 | 42467 | 88555 | 207210 | 86 | 33 | 78 | 493 | 2665 | 2665 | 93.6 fold | 2.98 fold | 1.94 fold | –
